# In the RNAGym collection of RNA variant scans (doi:10.7554/elife.90254):
# B1: LINE1-full (parent)
# chain: UACGUAGGUGGUUUUCCCCUGAUAGUGCUAAGGGGGCCUGGAAGUUUGGACUGGGCAGAGCUCAACACAGCGUGGCAAAGUGGCUGUGGCUAGACUGCCUCUCUGGAUUCCUCGUCACUCAGCAGGGCAUCUCUGAGAGAAAUGCC
# Variants of: B1
# Assay: self-cleavage, relative activity (ratio to wild type); higher = more cleavage; in vitro, sequencing; the parent is a self-cleaving ribozyme
row,Variant,self-cleavage
1,U15A U132C,0.98
2,U15A U134C,1.19
3,U15A U143A,1.09
4,U15C,1.42
5,U15C A22G,1.24
6,U15C A30U,0.5
7,U15C A50C,2.42
8,U15C A50G,1.11
9,U15C A57C,0.09
10,U15C A57G,1.06
11,U15C A57U,0.11
12,U15C A59G,0.1
13,U15C A59U,0.94
14,U15C A64C,0.64
15,U15C A64G,0.36
16,U15C A65U,0.2
17,U15C A67G,0.44
18,U15C A69U,0.09
19,U15C A77C,0.77
20,U15C A77G,1.55
21,U15C A77U,1.39
22,U15C A78G,1.34
23,U15C A78U,2.44
24,U15C A79U,1.88

row,Variant,self-cleavage
1,U15C A92U,0.79
2,U15C A94U,0.67
3,U15C A107G,1.14
4,U15C A117U,1.58
5,U15C A124C,0.86
6,U15C A124G,1.39
7,U15C A124U,1.32
8,U15C A129G,1.54
9,U15C A136U,1.41
10,U15C A138C,1.59
11,U15C A138G,1.49
12,U15C A138U,1.86
13,U15C A140U,1.61
14,U15C A141U,1.58
15,U15C A142C,1.8
16,U15C A142G,1.41
17,U15C C17G,1.13
18,U15C C17U,1.03
19,U15C C28U,2.35
20,U15C C51A,1.37
21,U15C C56A,0.04
22,U15C C56U,0.23
23,U15C C61U,0.05
24,U15C C66U,0.04

row,Variant,self-cleavage
1,U15C C76A,1.2
2,U15C C90U,0.04
3,U15C C95U,0.28
4,U15C C98U,0.33
5,U15C C99U,0.55
6,U15C C113U,1.71
7,U15C C120U,1.72
8,U15C C128U,1.1
9,U15C C133A,1.27
10,U15C C133U,1.51
11,U15C C146U,1.57
12,U15C G32A,0.93
13,U15C G32C,1.16
14,U15C G33A,1.05
15,U15C G34C,1.59
16,U15C G35A,1.41
17,U15C G35U,1.55
18,U15C G36C,1.31
19,U15C G44A,1.41
20,U15C G49A,1.21
21,U15C G70A,0.33
22,U15C G74A,1.4
23,U15C G75A,1.28
24,U15C G82A,1.92

row,Variant,self-cleavage
1,U15C G82U,1.9
2,U15C G83A,0.72
3,U15C G93U,0.09
4,U15C G114A,0.71
5,U15C G114C,1.59
6,U15C G122A,1.66
7,U15C G122U,1.16
8,U15C G125A,0.87
9,U15C G125U,0.82
10,U15C G127A,1.05
11,U15C G127U,1.23
12,U15C G137U,1.26
13,U15C G144A,1.04
14,U15C U23C,0.94
15,U15C U26A,1.16
16,U15C U29A,1.27
17,U15C U29C,1.28
18,U15C U39A,1.56
19,U15C U39G,1.6
20,U15C U45A,1.49
21,U15C U45C,1.55
22,U15C U45G,1.2
23,U15C U46C,1.31
24,U15C U52A,1.35

row,Variant,self-cleavage
1,U15C U52C,1.14
2,U15C U62A,0.07
3,U15C U62C,0.09
4,U15C U73G,1.18
5,U15C U81G,1.89
6,U15C U85C,0.34
7,U15C U87A,0.1
8,U15C U91A,0.81
9,U15C U91C,0.77
10,U15C U100C,1.81
11,U15C U102C,1.46
12,U15C U104A,1.05
13,U15C U104C,1.86
14,U15C U108A,2.1
15,U15C U108C,1.99
16,U15C U109A,1.41
17,U15C U109C,1.43
18,U15C U109G,0.84
19,U15C U115A,1.59
20,U15C U115G,1.07
21,U15C U119C,1.75
22,U15C U130A,1
23,U15C U130G,1.49
24,U15C U134A,1.04

row,Variant,self-cleavage
1,U15C U143A,1.55
2,U15C U143G,2.03
3,U15G,1.06
4,U15G A43G,0.5
5,U15G A50G,0.18
6,U15G A69G,0.95
7,U15G A78G,0
8,U15G A79G,0
9,U15G A94U,0.58
10,U15G A129G,0.61
11,U15G C118U,0.97
12,U15G G44U,0.96
13,U15G G114A,0.87
14,U15G G144A,0.82
15,U15G U115C,0.84
16,C16A A22U,1.21
17,C16A A79G,0.62
18,C16A A107G,0.87
19,C16A A117G,1.01
20,C16A A121U,1.97
21,C16A A124G,0.4
22,C16A A129U,1.15
23,C16A A141G,1.35
24,C16A C38U,1.45

row,Variant,self-cleavage
1,C16A G32A,0.77
2,C16A U96C,0.04
3,C16A U96G,0.08
4,C16U A59U,0.8
5,C16U A64G,0.09
6,C16U A79G,0.9
7,C16U A79U,1.54
8,C16U A121U,1.36
9,C16U A124U,0.88
10,C16U A129G,1.25
11,C16U A129U,1.36
12,C16U A140G,0.99
13,C16U A141G,1.13
14,C16U A142G,0.96
15,C16U C131U,1.8
16,C16U G32A,1
17,C16U U39C,1.35
18,C16U U52C,1.47
19,C16U U62C,0.09
20,C16U U87A,0.05
21,C16U U100C,1.02
22,C16U U104A,1.12
23,C16U U108A,1.14
